We go through 125 sequences from the supplement of paper PMC9112550, “Optimization of the antimicrobial peptide Bac7 by deep mutational scanning” (BMC Biology, 2022).
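Further: peptides expressed intracellularly from a pBAD plasmid library in pooled LB shake-flask culture, induced with 0.3% L-arabinose, DNA abundance read by NGS, three biological replicates, DESeq2 with apeglm shrinkage.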

The subject of the data set is Escherichia coli TOP10. Description: shrunken log2 fold change of peptide-encoding DNA abundance (4.5 h post-induction vs induction); higher = less antimicrobial activity (less host growth inhibition). The following applies: time post-induction: 4.5 h; library: site-saturation at positions 5, 18, 19, 20.
RRIRIRPPRLPRPRPRPALSPRP: the “shrunken log2 fold change” value was found to be 0.114. The result for RRIRWRPPRLPRPRPRPVWSPRP reads 0.163; that for RRIRHRPPRLPRPRPRPTEQPRP, -0.185; that for RRIRQRPPRLPRPRPRPTEFPRP, -0.113. For RRIRVRPPRLPRPRPRPIFDPRP, the “shrunken log2 fold change” value was -0.0222. With RRIRDRPPRLPRPRPRPCNKPRP, the “shrunken log2 fold change” value was -0.764. In the case of RRIRFRPPRLPRPRPRPMWIPRP, the “shrunken log2 fold change” value was -0.106.

RRIRCRPPRLPRPRPRPPTGPRP: the “shrunken log2 fold change” value was 0.232. Turning to RRIRVRPPRLPRPRPRPGQTPRP, the “shrunken log2 fold change” value is -0.00176. The result for RRIRVRPPRLPRPRPRPSIWPRP reads -0.205; that for RRIRWRPPRLPRPRPRPVTVPRP, -0.194.

For the sequence RRIRPRPPRLPRPRPRPAHPPRP, the “shrunken log2 fold change” value worked out at 0.273. Regarding RRIRRRPPRLPRPRPRPWCKPRP, the “shrunken log2 fold change” value was -0.0285.

In the case of RRIRKRPPRLPRPRPRPIYRPRP, the “shrunken log2 fold change” value is -0.0881. Turning to RRIRLRPPRLPRPRPRPFKAPRP, the “shrunken log2 fold change” value turned out to be 0.181.

On to RRIRFRPPRLPRPRPRPVGQPRP, for which the “shrunken log2 fold change” value was -0.0211. The result for RRIRNRPPRLPRPRPRPLVVPRP reads -0.117. The result for RRIRYRPPRLPRPRPRPKFAPRP reads -0.44; that for RRIRHRPPRLPRPRPRPNCTPRP, -0.142.

In the case of RRIRNRPPRLPRPRPRPRPKPRP, the “shrunken log2 fold change” value was 0.719. For the sequence RRIRRRPPRLPRPRPRPTSMPRP, the “shrunken log2 fold change” value is 0.263.

As for RRIRRRPPRLPRPRPRPCWTPRP, the “shrunken log2 fold change” value was -0.13.

As to RRIRRRPPRLPRPRPRPVTAPRP, the “shrunken log2 fold change” value came out at 0.452. Take RRIRQRPPRLPRPRPRPFQNPRP: the “shrunken log2 fold change” value is -0.179. Regarding RRIRERPPRLPRPRPRPFVQPRP, the “shrunken log2 fold change” value is -0.386.

On to RRIRTRPPRLPRPRPRPDFWPRP, for which the “shrunken log2 fold change” value came out at 0.413. Take RRIRTRPPRLPRPRPRPGNFPRP: the “shrunken log2 fold change” value was -0.0548. Consider RRIRKRPPRLPRPRPRPGYMPRP, for which the “shrunken log2 fold change” value is -0.144. Consider RRIRARPPRLPRPRPRPYPVPRP, for which the “shrunken log2 fold change” value was -0.191. With RRIRIRPPRLPRPRPRPVKSPRP, the “shrunken log2 fold change” value was -0.0366.

On to RRIRYRPPRLPRPRPRPPYNPRP, for which the “shrunken log2 fold change” value is -1.41. The result for RRIRGRPPRLPRPRPRPMLAPRP reads 1.9. The result for RRIRQRPPRLPRPRPRPEDWPRP reads -0.106. For the sequence RRIRQRPPRLPRPRPRPTRLPRP, the “shrunken log2 fold change” value turned out to be 0.723. The result for RRIRWRPPRLPRPRPRPPVGPRP reads 0.167. As to RRIRKRPPRLPRPRPRPKVFPRP, the “shrunken log2 fold change” value is -0.0531.

In the case of RRIRMRPPRLPRPRPRPVPRPRP, the “shrunken log2 fold change” value stood at 0.606. RRIRHRPPRLPRPRPRPGQWPRP: the “shrunken log2 fold change” value is 0.318. The result for RRIRQRPPRLPRPRPRPHGPPRP reads -0.102; that for RRIRKRPPRLPRPRPRPHLSPRP, 0.0468. As for RRIRERPPRLPRPRPRPPKGPRP, the “shrunken log2 fold change” value is -0.16.

RRIRPRPPRLPRPRPRPNWPPRP: the “shrunken log2 fold change” value was 0.0357.

Turning to RRIRHRPPRLPRPRPRPTSCPRP, the “shrunken log2 fold change” value was -0.125. The result for RRIRWRPPRLPRPRPRPIGMPRP reads -0.131; that for RRIRHRPPRLPRPRPRPSQSPRP, -0.22. Turning to RRIRRRPPRLPRPRPRPIYHPRP, the “shrunken log2 fold change” value was -0.258. For the sequence RRIRIRPPRLPRPRPRPSQKPRP, the “shrunken log2 fold change” value is -0.187. For the sequence RRIRIRPPRLPRPRPRPAFPPRP, the “shrunken log2 fold change” value is -0.0288.

For RRIRQRPPRLPRPRPRPEQSPRP, the “shrunken log2 fold change” value turned out to be 0.142. The result for RRIRCRPPRLPRPRPRPSSDPRP reads -0.162. As to RRIRIRPPRLPRPRPRPGCNPRP, the “shrunken log2 fold change” value was -0.247. The result for RRIRIRPPRLPRPRPRPWANPRP reads -0.0688; that for RRIRRRPPRLPRPRPRPTAMPRP, 0.78.

With RRIRGRPPRLPRPRPRPGIDPRP, the “shrunken log2 fold change” value came to 0.607. In the case of RRIRKRPPRLPRPRPRPRETPRP, the “shrunken log2 fold change” value was 0.0512.

As to RRIRCRPPRLPRPRPRPYSHPRP, the “shrunken log2 fold change” value is -0.595. For RRIRIRPPRLPRPRPRPFVLPRP, the “shrunken log2 fold change” value is -0.113. In the case of RRIRDRPPRLPRPRPRPHVWPRP, the “shrunken log2 fold change” value was found to be 0.0894. The result for RRIRQRPPRLPRPRPRPPFYPRP reads -0.0349.

As for RRIRKRPPRLPRPRPRPTDGPRP, the “shrunken log2 fold change” value turned out to be 0.396.

As for RRIRWRPPRLPRPRPRPWTYPRP, the “shrunken log2 fold change” value is -0.0122. The result for RRIRPRPPRLPRPRPRPRAPPRP reads 0.683. For RRIRWRPPRLPRPRPRPIKMPRP, the “shrunken log2 fold change” value stood at 0.212.

On to RRIRNRPPRLPRPRPRPGQQPRP, for which the “shrunken log2 fold change” value is -0.0199. The result for RRIRNRPPRLPRPRPRPINCPRP reads 0.00363.

With RRIRDRPPRLPRPRPRPINSPRP, the “shrunken log2 fold change” value was -0.292. Take RRIRFRPPRLPRPRPRPMWQPRP: the “shrunken log2 fold change” value was -0.00366. For RRIRCRPPRLPRPRPRPHIAPRP, the “shrunken log2 fold change” value is -0.413. As for RRIRVRPPRLPRPRPRPLNVPRP, the “shrunken log2 fold change” value is -0.434. The result for RRIRTRPPRLPRPRPRPYWVPRP reads -0.0888; that for RRIRRRPPRLPRPRPRPTNGPRP, -0.168; that for RRIRFRPPRLPRPRPRPKTAPRP, 0.295. The result for RRIRPRPPRLPRPRPRPTSAPRP reads 0.156.

In the case of RRIRYRPPRLPRPRPRPDIWPRP, the “shrunken log2 fold change” value is -0.00585. As to RRIRSRPPRLPRPRPRPHCRPRP, the “shrunken log2 fold change” value was -0.172. Consider RRIRSRPPRLPRPRPRPPFHPRP, for which the “shrunken log2 fold change” value was -0.0308. The result for RRIRQRPPRLPRPRPRPDNCPRP reads 0.0333; that for RRIRCRPPRLPRPRPRPLTSPRP, 0.208.

Regarding RRIRERPPRLPRPRPRPISRPRP, the “shrunken log2 fold change” value was -0.0122.

Regarding RRIRPRPPRLPRPRPRPYGPPRP, the “shrunken log2 fold change” value is -0.37. Take RRIRARPPRLPRPRPRPQQCPRP: the “shrunken log2 fold change” value is 0.132. The result for RRIRKRPPRLPRPRPRPYWNPRP reads -0.106; that for RRIRIRPPRLPRPRPRPLVEPRP, -0.0936.

In the case of RRIRGRPPRLPRPRPRPLQSPRP, the “shrunken log2 fold change” value was 0.746. On to RRIRYRPPRLPRPRPRPAHTPRP, for which the “shrunken log2 fold change” value was -0.113.

As to RRIRSRPPRLPRPRPRPFYFPRP, the “shrunken log2 fold change” value was -0.55. The result for RRIRWRPPRLPRPRPRPPCPPRP reads 0.138; that for RRIRWRPPRLPRPRPRPHEMPRP, 0.433; that for RRIRWRPPRLPRPRPRPEHHPRP, -0.0625. As for RRIRSRPPRLPRPRPRPWDRPRP, the “shrunken log2 fold change” value was -0.0645.

As for RRIRYRPPRLPRPRPRPQLDPRP, the “shrunken log2 fold change” value is -0.555. The result for RRIRWRPPRLPRPRPRPAPFPRP reads 0.0259; that for RRIRGRPPRLPRPRPRPEHDPRP, 0.835.

With RRIRVRPPRLPRPRPRPIDVPRP, the “shrunken log2 fold change” value was -0.0749. The result for RRIRFRPPRLPRPRPRPCLHPRP reads -0.542; that for RRIRIRPPRLPRPRPRPVCVPRP, -0.279; that for RRIRIRPPRLPRPRPRPKHKPRP, -0.508. Take RRIRARPPRLPRPRPRPLNIPRP: the “shrunken log2 fold change” value came to 0.0473. Turning to RRIRPRPPRLPRPRPRPMTSPRP, the “shrunken log2 fold change” value stood at 0.0205.

On to RRIRCRPPRLPRPRPRPLWTPRP, for which the “shrunken log2 fold change” value was -0.00711. For RRIRLRPPRLPRPRPRPRHMPRP, the “shrunken log2 fold change” value is -0.287.

In the case of RRIRVRPPRLPRPRPRPPWGPRP, the “shrunken log2 fold change” value is 0.0932. As to RRIRSRPPRLPRPRPRPGDNPRP, the “shrunken log2 fold change” value stood at 0.0473. With RRIRYRPPRLPRPRPRPTTMPRP, the “shrunken log2 fold change” value is -0.722. In the case of RRIRCRPPRLPRPRPRPANEPRP, the “shrunken log2 fold change” value turned out to be 0.0681.

Consider RRIRMRPPRLPRPRPRPGHGPRP, for which the “shrunken log2 fold change” value turned out to be 0.32. The result for RRIRVRPPRLPRPRPRPCRSPRP reads 0.00156. For the sequence RRIRWRPPRLPRPRPRPTCIPRP, the “shrunken log2 fold change” value was 0.248. The result for RRIRQRPPRLPRPRPRPRWEPRP reads 0.0653; that for RRIRKRPPRLPRPRPRPFPEPRP, 0.273. The result for RRIRTRPPRLPRPRPRPQFGPRP reads -0.00643; that for RRIRPRPPRLPRPRPRPSNPPRP, -0.0794; that for RRIRQRPPRLPRPRPRPRTIPRP, 0.122.

For the sequence RRIRNRPPRLPRPRPRPYYEPRP, the “shrunken log2 fold change” value was -0.793.

For the sequence RRIRTRPPRLPRPRPRPQHDPRP, the “shrunken log2 fold change” value is -0.259.

For the sequence RRIRLRPPRLPRPRPRPPWGPRP, the “shrunken log2 fold change” value is 0.203. RRIRGRPPRLPRPRPRPRVEPRP: the “shrunken log2 fold change” value is 0.432. The result for RRIRARPPRLPRPRPRPWWHPRP reads -0.0749. Regarding RRIRMRPPRLPRPRPRPKQIPRP, the “shrunken log2 fold change” value stood at 0.371. Regarding RRIRSRPPRLPRPRPRPQVRPRP, the “shrunken log2 fold change” value was found to be 0.0563.

With RRIRCRPPRLPRPRPRPLMMPRP, the “shrunken log2 fold change” value is 0.239. The result for RRIRYRPPRLPRPRPRPGSYPRP reads -0.349.

Consider RRIRCRPPRLPRPRPRPCEIPRP, for which the “shrunken log2 fold change” value was 0.0656. Turning to RRIRARPPRLPRPRPRPKHCPRP, the “shrunken log2 fold change” value was 0.0395. For the sequence RRIRHRPPRLPRPRPRPTRFPRP, the “shrunken log2 fold change” value came to 1.65.
